US20200264182A1, “METHOD FOR DETECTING PROSTATE CANCER” (J-OIL MILLS, INC., priority 2017, published 2020)

Experiment: FAC binding constant
Conditions: at 25° C.
Experimental: Details of the FAC method are described in Patent Document 2 filed by some of the present applicants, for example.
Binding constants (at 25° C.) of PhoSL, SRL, NSL and LSL belonging to the fucose α1→6 specific lectin for various sugar chains are shown in Tables 2 to 5.

[1] = sugar chain having fucose other than α1→6 fucose

B1: AAL: Aleuria aurantia lectin, has affinity for fucose α1→6 but is not specific; from J-OIL MILLS, Inc. (protein)
chain: PTEFLYTSKIAAISWAATGGRQQRVYFQDLNGKIREAQRGGDNPWTGGSSQNVIGEAKLFSPLAAVTWKSAQGIQIRVYCVNKDNILSEFVYDGSKWITGQLGSVGVKVGSNSKLAALQWGGSESAPPNIRVYYQKSNGSGSSIHEYVWSGKWTAGASFGSTVPGTGIGATAIGPGRLRIYYQATDNKIREHCWDSNSWYVGGFSASASAGVSIAAISWGSTPNIRVYWQKGREELYEAAYGGSWNTPGQIKDASRPTPSLPDTFIAANSSGNIDISVFFQASGVSLQQWQWISGKGWSIGAVVPTGTPAGW
Q: What does the source list for B1?
A: Binding constant for sugar chain No. 728 (Table 3: sugar chain having fucose other than α1→6 fucose): <1000 M⁻¹; Binding constant for sugar chain No. 419 [1]: <1000 M⁻¹; Binding constant for sugar chain No. 420 [1]: <1000 M⁻¹; Binding constant for sugar chain No. 718 [1]: 65000 M⁻¹; Binding constant for sugar chain No. 719 [1]: <1000 M⁻¹; Binding constant for sugar chain No. 720 [1]: <1000 M⁻¹; Binding constant for sugar chain No. 721 [1]: <1000 M⁻¹; Binding constant for sugar chain No. 722 [1]: <1000 M⁻¹; Binding constant for sugar chain No. 723 [1]: 35000 M⁻¹; Binding constant for sugar chain No. 726 [1]: <1000 M⁻¹; Binding constant for sugar chain No. 727 [1]: 130000 M⁻¹; Binding constant for sugar chain No. 729 [1]: <1000 M⁻¹; Binding constant for sugar chain No. 730 [1]: <1000 M⁻¹; Binding constant for sugar chain No. 731 [1]: <1000 M⁻¹; Binding constant for sugar chain No. 739 [1]: <1000 M⁻¹; Binding constant for sugar chain No. 909 [1]: 310000 M⁻¹; Binding constant for sugar chain No. 910 [1]: 90000 M⁻¹; Binding constant for sugar chain No. 931 [1]: <1000 M⁻¹; Binding constant for sugar chain No. 932 [1]: <1000 M⁻¹; Binding constant for sugar chain No. 933 [1]: 210000 M⁻¹; Binding constant for sugar chain No. 001 (sugar chain having no fucose): <1000 M⁻¹; Binding constant for sugar chain No. 002 (sugar chain having no fucose): <1000 M⁻¹; Binding constant for sugar chain No. 003 (sugar chain having no fucose): <1000 M⁻¹; Binding constant for sugar chain No. 004 (sugar chain having no fucose): <1000 M⁻¹; Binding constant for sugar chain No. 005 (sugar chain having no fucose): <1000 M⁻¹; Binding constant for sugar chain No. 006 (sugar chain having no fucose): <1000 M⁻¹; Binding constant for sugar chain No. 007 (sugar chain having no fucose): <1000 M⁻¹; Binding constant for sugar chain No. 008 (sugar chain having no fucose): <1000 M⁻¹; Binding constant for sugar chain No. 009 (sugar chain having no fucose): <1000 M⁻¹; Binding constant for sugar chain No. 010 (sugar chain having no fucose): <1000 M⁻¹; Binding constant for sugar chain No. 011 (sugar chain having no fucose): <1000 M⁻¹; Binding constant for sugar chain No. 012 (sugar chain having no fucose): <1000 M⁻¹; Binding constant for sugar chain No. 013 (sugar chain having no fucose): <1000 M⁻¹; Binding constant for sugar chain No. 014 (sugar chain having no fucose): <1000 M⁻¹; Binding constant for sugar chain No. 101 (sugar chain having no fucose): <1000 M⁻¹; Binding constant for sugar chain No. 103 (sugar chain having no fucose): <1000 M⁻¹; Binding constant for sugar chain No. 104 (sugar chain having no fucose): <1000 M⁻¹; Binding constant for sugar chain No. 105 (sugar chain having no fucose): <1000 M⁻¹; Binding constant for sugar chain No. 107 (sugar chain having no fucose): <1000 M⁻¹; Binding constant for sugar chain No. 108 (sugar chain having no fucose): <1000 M⁻¹; Binding constant for sugar chain No. 301 (sugar chain having no fucose): <1000 M⁻¹; Binding constant for sugar chain No. 304 (sugar chain having no fucose): <1000 M⁻¹; Binding constant for sugar chain No. 305 (sugar chain having no fucose): <1000 M⁻¹; Binding constant for sugar chain No. 307 (sugar chain having no fucose): <1000 M⁻¹; Binding constant for sugar chain No. 308 (sugar chain having no fucose): <1000 M⁻¹; Binding constant for sugar chain No. 313 (sugar chain having no fucose): <1000 M⁻¹; Binding constant for sugar chain No. 314 (sugar chain having no fucose): <1000 M⁻¹; Binding constant for sugar chain No. 323 (sugar chain having no fucose): <1000 M⁻¹; Binding constant for sugar chain No. 501 (sugar chain having no fucose): <1000 M⁻¹; Binding constant for sugar chain No. 502 (sugar chain having no fucose): <1000 M⁻¹; Binding constant for sugar chain No. 503 (sugar chain having no fucose): <1000 M⁻¹; Binding constant for sugar chain No. 504 (sugar chain having no fucose): <1000 M⁻¹; Binding constant for sugar chain No. 701 (sugar chain having no fucose): <1000 M⁻¹; Binding constant for sugar chain No. 702 (sugar chain having no fucose): <1000 M⁻¹; Binding constant for sugar chain No. 703 (sugar chain having no fucose): <1000 M⁻¹; Binding constant for sugar chain No. 704 (sugar chain having no fucose): <1000 M⁻¹; Binding constant for sugar chain No. 705 (sugar chain having no fucose): <1000 M⁻¹; Binding constant for sugar chain No. 706 (sugar chain having no fucose): <1000 M⁻¹; Binding constant for sugar chain No. 707 (sugar chain having no fucose): <1000 M⁻¹; Binding constant for sugar chain No. 708 (sugar chain having no fucose): <1000 M⁻¹; Binding constant for sugar chain No. 709 (sugar chain having no fucose): <1000 M⁻¹; Binding constant for sugar chain No. 710 (sugar chain having no fucose): <1000 M⁻¹; Binding constant for sugar chain No. 711 (sugar chain having no fucose): <1000 M⁻¹; Binding constant for sugar chain No. 712 (sugar chain having no fucose): <1000 M⁻¹; Binding constant for sugar chain No. 713 (sugar chain having no fucose): <1000 M⁻¹; Binding constant for sugar chain No. 715 (sugar chain having no fucose): <1000 M⁻¹; Binding constant for sugar chain No. 716 (sugar chain having no fucose): <1000 M⁻¹; Binding constant for sugar chain No. 717 (sugar chain having no fucose): <1000 M⁻¹; Binding constant for sugar chain No. 724 (sugar chain having no fucose): <1000 M⁻¹; Binding constant for sugar chain No. 725 (sugar chain having no fucose): <1000 M⁻¹; Binding constant for sugar chain No. 732 (sugar chain having no fucose): <1000 M⁻¹; Binding constant for sugar chain No. 733 (sugar chain having no fucose): <1000 M⁻¹; Binding constant for sugar chain No. 734 (sugar chain having no fucose): <1000 M⁻¹; Binding constant for sugar chain No. 735 (sugar chain having no fucose): <1000 M⁻¹; Binding constant for sugar chain No. 736 (sugar chain having no fucose): <1000 M⁻¹; Binding constant for sugar chain No. 737 (sugar chain having no fucose): <1000 M⁻¹; Binding constant for sugar chain No. 738 (sugar chain having no fucose): <1000 M⁻¹; Binding constant for sugar chain No. 901 (sugar chain having no fucose): <1000 M⁻¹; Binding constant for sugar chain No. 902 (sugar chain having no fucose): <1000 M⁻¹; Binding constant for sugar chain No. 903 (sugar chain having no fucose): <1000 M⁻¹; Binding constant for sugar chain No. 905 (sugar chain having no fucose): <1000 M⁻¹; Binding constant for sugar chain No. 906 (sugar chain having no fucose): <1000 M⁻¹; Binding constant for sugar chain No. 907 (sugar chain having no fucose): <1000 M⁻¹; Binding constant for sugar chain No. 015 (sugar chain having α1→6 fucose): 91000 M⁻¹; Binding constant for sugar chain No. 201 (sugar chain having α1→6 fucose): 51000 M⁻¹; Binding constant for sugar chain No. 202 (sugar chain having α1→6 fucose): 54000 M⁻¹; Binding constant for sugar chain No. 203 (sugar chain having α1→6 fucose): 66000 M⁻¹; Binding constant for sugar chain No. 401 (sugar chain having α1→6 fucose): 55000 M⁻¹; Binding constant for sugar chain No. 402 (sugar chain having α1→6 fucose): 11000 M⁻¹; Binding constant for sugar chain No. 403 (sugar chain having α1→6 fucose): 52000 M⁻¹; Binding constant for sugar chain No. 404 (sugar chain having α1→6 fucose): 65000 M⁻¹; Binding constant for sugar chain No. 405 (sugar chain having α1→6 fucose): 56000 M⁻¹; Binding constant for sugar chain No. 406 (sugar chain having α1→6 fucose): 47000 M⁻¹; Binding constant for sugar chain No. 407 (sugar chain having α1→6 fucose): 45000 M⁻¹; Binding constant for sugar chain No. 410 (sugar chain having α1→6 fucose): 38000 M⁻¹; Binding constant for sugar chain No. 413 (sugar chain having α1→6 fucose): 32000 M⁻¹; Binding constant for sugar chain No. 418 (sugar chain having α1→6 fucose): <1000 M⁻¹; Binding constant for sugar chain No. 601 (sugar chain having α1→6 fucose): 61000 M⁻¹; Binding constant for sugar chain No. 602 (sugar chain having α1→6 fucose): 52000 M⁻¹
